Where a chain is given by its changes, count along the chain named. Names may count otherwise.
B1: EagT6 I24F (natural protein)
chain: MTLYRLHEADLEIPDAWQDQSINFFKLPASGPAREASFVISRDASQGDAPFADYVARQLENAEKQLPGFKLHKRWDINIHGHAAVLLDYQWQREGRDLMLRQVFIERRPAVLITTLTTTPADLPHHEPAWKQAMQTLVPRPTPS
B2: EagT6 L66A (natural protein)
chain: B1 chain with F24I, L66A
notes: also called EagT6-TMD L66A (in complex)
B3: EagT6 Q58A (natural protein)
chain: B1 chain with F24I, Q58A
notes: also called EagT6-TMD Q58A (in complex)
B4: Tse6(1–61) (domain or fragment)
chain: MDAQAAARLGDEIAHGFGVAAMVAGAVAGALIGAAVVAATAATGGLAAVILAGSIAAGGLS
notes: not shown: His6, C-terminal, kept
B5: EagT6 S41A (natural protein)
chain: B1 chain with F24I, S41A
B6: EagT6 Q102A (natural protein)
chain: B1 chain with F24I, Q102A

Tests used:
[1] = target: SciW S41A (Salmonella Typhimurium); test: dynamic light scattering; 50 mM Tris pH 8.0, 250 mM NaCl, 1 mM BME, 25 °C, 0.5 mg/ml protein
[2] = target: Tse6(1–61) (Pseudomonas aeruginosa) (UniProt Q9I739); test: GdmCl denaturation followed by steady-state tryptophan fluorescence (unfolding free energy of the co-purified complex against the apo chaperone); 1 μM protein dimer, 25 mM Tris pH 7.0, GdmCl series, room temperature, 1 h equilibration; KTMD calculated by Eq. (7) from ΔG° of unfolding extrapolated to 0 M denaturant
[3] = target: Rhs1(1–59) (Salmonella Typhimurium); test: stopped-flow fluorescence unfolding kinetics; co-purified complex or apo chaperone, 10 μM diluted 1/10 into GdmCl in 50 mM Tris, 250 mM NaCl, 1 mM BME, 20 °C; rate extrapolated to 0 M GdmCl
[4] = target: SciW (Salmonella Typhimurium); test: dynamic light scattering; 50 mM Tris pH 8.0, 250 mM NaCl, 1 mM BME, 25 °C, 0.5 mg/ml protein
[5] = target: SciW Q106A (Salmonella Typhimurium); test: as above
[6] = target: SciW I25F (Salmonella Typhimurium); test: as above
[7] = target: SciW Q58A (Salmonella Typhimurium); test: as above
[8] = target: the molecule itself; test: as above
EagT6 Q58A = target: B3; test: GdmCl denaturation followed by steady-state tryptophan fluorescence (unfolding free energy of the co-purified complex against the apo chaperone); 1 μM protein dimer, 25 mM Tris pH 7.0, GdmCl series, room temperature, 1 h equilibration; KTMD calculated by Eq. (7) from ΔG° of unfolding extrapolated to 0 M denaturant; conditions: both partners purified

With SciW S41A (natural protein) the stoichiometry N [1] was 2.

For “EagT6 L66A (from UniProt Q9I738) (natural protein)”, the Ka [2] was < 1e+06 M⁻¹.

SciW L66A (natural protein) gave a lifetime of the complex [3] of 2 h.

SciW (natural protein) showed a stoichiometry N [4] of 2 and a lifetime of the complex [3] of 15 h.

Work on SciW Q106A (natural protein) yielded a stoichiometry N [5] of 2.

With SciW I25F (natural protein) the stoichiometry N [6] was 2.

SciW Q58A (natural protein) showed a stoichiometry N [7] of 2 and a lifetime of the complex [3] of 0.267 h.

B1 was tested, and the “stoichiometry N” value [8] was 2.

B2 was tested, and the “stoichiometry N” value [8] was 2.

For B3, the “stoichiometry N” value [8] was 2.

For B4, the Kd (EagT6 Q58A) was ~0.03 nM.

For B5, the “stoichiometry N” value [8] was 2.

In the case of B6, the “stoichiometry N” value [8] is reported as 2.

From PMC12881460, “Biophysical characterization of Eag chaperones suggests the mechanism of effector transmembrane domain release” (Nature Communications, 2026)
